Binding result and Kd data for four molecules are collected here from patent US20080311122, “Antagonists of Hmgb1 and/or Rage and Methods of Use Thereof” (Medimmune, LLC, published 2008).

The target in series [1] is T1, HMGB1 (native, calf/bovine thymus) (Bos taurus, UniProt P10103 P10103:2-215). In words: non-stimulatory CpG-A control sequence bound; tryptophan fluorescence. As to conditions: tags: none; purified from bovine thymus at Medimmune.
Series [2] has as its target T2, HMGB1 + RAGE/Fc complex (Bos taurus / Mus musculus, UniProt P10103;Q62151 P10103:2-215,Q62151:23-340).
T2 chain 1: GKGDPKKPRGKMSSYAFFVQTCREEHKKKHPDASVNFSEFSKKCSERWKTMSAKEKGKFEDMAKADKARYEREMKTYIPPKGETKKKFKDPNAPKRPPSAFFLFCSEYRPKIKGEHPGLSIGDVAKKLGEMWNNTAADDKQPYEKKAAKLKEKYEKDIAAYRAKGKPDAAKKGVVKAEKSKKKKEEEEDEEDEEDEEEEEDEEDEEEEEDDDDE
T2 chain 2: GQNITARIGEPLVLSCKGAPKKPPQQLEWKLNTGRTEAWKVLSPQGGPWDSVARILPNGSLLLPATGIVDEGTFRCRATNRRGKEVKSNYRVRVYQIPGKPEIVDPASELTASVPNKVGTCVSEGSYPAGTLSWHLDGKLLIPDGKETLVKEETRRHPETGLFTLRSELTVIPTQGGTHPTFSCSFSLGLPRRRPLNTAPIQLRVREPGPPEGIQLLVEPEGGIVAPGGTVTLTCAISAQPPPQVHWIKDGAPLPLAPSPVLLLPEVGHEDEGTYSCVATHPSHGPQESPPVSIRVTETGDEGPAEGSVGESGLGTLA
In words: HMGB1/CpG-B complex failed to augment binding to RAGE; data not shown. To be noted: tags: thymus HMGB1; RAGE Fc fusion (R&D Systems).

In series [3] the target is T1, HMGB1 (native, calf/bovine thymus). In words: data not shown; p546 states conversely that HMGB1 binds both A and B class ODN. As to conditions: tags: none; purified from bovine thymus at Medimmune.
Series [4] concerns the target T3, RAGE/Fc (Mus musculus, UniProt Q62151 Q62151:23-340).
T3 chain: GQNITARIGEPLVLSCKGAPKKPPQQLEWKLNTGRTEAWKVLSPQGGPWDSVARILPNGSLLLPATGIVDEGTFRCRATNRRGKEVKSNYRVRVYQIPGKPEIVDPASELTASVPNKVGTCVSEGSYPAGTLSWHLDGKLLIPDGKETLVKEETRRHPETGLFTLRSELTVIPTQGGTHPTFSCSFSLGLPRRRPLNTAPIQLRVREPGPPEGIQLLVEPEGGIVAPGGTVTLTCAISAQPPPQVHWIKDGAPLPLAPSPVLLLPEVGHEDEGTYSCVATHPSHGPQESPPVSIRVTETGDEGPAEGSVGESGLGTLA
As to the kind of experiment: ELISA, CpG-A alone on immobilized RAGE/Fc. As to conditions: tags: Fc fusion, R&D Systems; chain copies: 2; label: biotin (ELISA). In general terms: An ELISA detects its analyte on a solid surface through an enzyme-linked reagent.

Series [5] addresses T2, HMGB1 + RAGE/Fc complex. In words: ELISA; CpG-A associates with immobilized RAGE/Fc only when pre-complexed with HMGB1; CpG-A lowers EC50 of HMGB1-RAGE binding 100-1000 fold. To be noted: tags: thymus HMGB1; RAGE Fc fusion (R&D Systems); label: biotin (ELISA). As for the experimental part: (§1) CpG ELISA: Proteins or peptides were diluted in PBS to the concentration of 5 μg/ml and coated onto plates at 4° C. o/n. Plates were blocked with 4% dry milk in PBS. Biotin labeled CpG-A alone or in complex with HMGB1 were incubated in the plates at 37° C. for 1 hr. and detected with HRP labeled strep-avidin.

In series [6] the target is T1, HMGB1 (native, calf/bovine thymus). As to the kind of experiment: apparent Kd; intrinsic tryptophan fluorescence quench, 1.7 uM HMGB1, 1:10 DPBS, 25 C. To be noted: tags: none; purified from bovine thymus at Medimmune; label: biotin (ELISA). The procedure:
Tryptophan emission for CpG-A binding to HMGB1: Fluorescence titrations and spectra of HMGB-1 were carried out at 25° C. with a SPEX Fluoromax-3 spectrofluorimeter, monitoring the HMGB-1 intrinsic tryptophan emission at 347 nm (8 nm bandwidth) with 280 nm excitation (3 nm bandwidth) in a masked capped dual-pathlength (0.2×1.0 cm) quartz cell (Hellma Cells, Inc., Jamaica, N.Y.) upon stepwise addition of CpG-A (0.5 mM) to a 1.7 μM solution of HMGB-1 in 1:10 Dulbecco Phosphate Buffered Saline (PBS) solution (Invitrogen, Carlsbad, Calif.). Complex formation between HMGB-1 and the nucleic acid was monitored by the change in the initial fluorescence of the protein. HMGB-1 fractional saturation was inferred from the ratio of observed fluorescence change to maximal change (at saturation), Fₗᵢₘ, for each of the nucleic acid additions. Binding affinity was calculated from graphs of relative fluorescence intensity versus [nucleic acid base]/[protein].The occluded binding site size (n) was derived from the intersection of the extrapolated initial slope with the limiting fluorescence plateau in the equilibrium binding isotherms. The measurements for assessment of Tryptophan emission are reviewed in detail in Lakowicz, 2000, Photochem. Photobiol. 72, 421-437.
The binding of immobilized HMGB1 to soluble CpG-A was determined by ELISA (FIG. 33, top left). […]

Series [7] addresses T4, HMGB1 A-box peptide (Homo sapiens, UniProt P09429 SEQ:1-77).
T4 sequence: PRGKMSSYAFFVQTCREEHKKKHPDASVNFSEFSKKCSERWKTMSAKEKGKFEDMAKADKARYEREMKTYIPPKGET
As to the kind of experiment: affinity comparable to full-length HMGB1; data not shown; stated only as CpG DNA. To be noted: protein: synthetic; tags: synthetic peptide, New England Peptide; label: biotin (ELISA). As for the experimental part:
as §1

The target of series [8] is HMGB1 B-box peptide (Homo sapiens, UniProt P09429 SEQ:1-69). The series is described as above. As to conditions: protein: synthetic; tags: synthetic peptide, New England Peptide; label: biotin (ELISA). As for the experimental part:
as §1

For series [9], the target named is T1, HMGB1 (native, calf/bovine thymus). As to the kind of experiment: random DNA not bound. As to conditions: tags: none; purified from bovine thymus at Medimmune.

Regarding GGGGGAGCATGCTGGGGGGC (ssDNA) [control ODN for CpG-A (non-stimulatory)], the binding result in [1] was “binds”.

Take TCGTCGTTTTGTCGTTTTGTCGTT (ssDNA) [CpG-B (ODN 2006)]: the binding result in series [2] and in [3] was “no binding” each time.

As for GGGGGACGATCGTCGGGGGG (ssDNA) [CpG-A (ODN2216)], the binding result in series [4] is reported as “no binding”; in series [5], “binds”; in [7], “binds”; in series [8] it was “binds”. The Kd in series [6] was 70 nM.

As to GGTCGTTCCATTTTACTCCAC (ssDNA) [random DNA ODN], in [9], the binding result was “no binding”.
